Laboratory results from US20150351390A1, “COMPOSITIONS AND METHODS FOR AUXIN-ANALOG CONJUGATION” (PIONEER HI-BRED INTERNATIONAL, INC., priority 2012, published 2015).

What was measured:
[1] = LC-MS assay of GH3 conjugation of 2,4-D with Asp or Glu; format: biochemical; details: for kcat (hrs−1) 2,4-D-Asp: conjugation of 2,4-D with Asp by recombinant GH3 protein, 2,4-D-Asp product by LC-MS; for kcat (hrs−1) 2,4-D-Asp / kcat (hrs−1) 2,4-D-Glu: 5 mM 2,4-D substrate; for kcat (hrs−1) 2,4-D-Glu: conjugation of 2,4-D with Glu by recombinant GH3 protein, 2,4-D-Glu product by LC-MS; for 2,4-D conjugation activity with Asp or Glu: result in words
Summary of the method: (§1)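 N-His-tagged GH3 homologs expressed in E. coli C41(DE3) and Ni-NTA purified (44 to 164 μg/mL) were incubated 3 hours at 30° C. in 20 mM Tris-HCl pH 8.0, 5 mM MgCl2, 1 mM DTT with 5 mM each of auxin, ATP and Asp or Glu. Conjugates were quantified by LC-MS against standards.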

[2] = LC-MS assay of GH3 conjugation of IAA with Asp or Glu; format: biochemical; details: for kcat (hrs−1) IAA-Asp: conjugation of IAA with Asp by recombinant GH3 protein, IAA-Asp product by LC-MS; for kcat (hrs−1) IAA-Glu: conjugation of IAA with Glu by recombinant GH3 protein, IAA-Glu product by LC-MS; for IAA conjugation activity with Asp or Glu: result in words
Summary of the method: as §1

Molecule | kcat (hrs−1) 2,4-D-Asp [1] [h⁻¹] | kcat (hrs−1) 2,4-D-Glu [1] [h⁻¹] | kcat (hrs−1) IAA-Asp [2] [h⁻¹] | kcat (hrs−1) IAA-Glu [2] [h⁻¹] | 2,4-D conjugation activity with Asp or Glu [1] | IAA conjugation activity with Asp or Glu [2]
PtGH3-9: GH3 protein, accession EEE81977 (protein, listed as Populus trichocarpa) MDGKKLEYKGWVALKEIERLTEKADEVQETILKAILMQNGETEYLSKYMKGSKDVDEFKFHVPVITYKDVCPYIQRIATGEDSSLVTGHPVTEMLCSSGTSAGEPKLMPSIAEDLDRRTFVYNLIMPIMNQYIFGLDEGKAMFLYFIKAEMSTPCGLPARTVLTSYYKSKHFKCRTRDAFNDFTSPDQAILCKDSNQSMYCQLLSGLVHRHQVLRLGAVFASAFLRAISFLERNWGRLCNDIRSGDLDPTITDPECRSCMSMLLTSPNPSLADEIEDICSNTSWKGILCHLWPRAKYIEAVVTGSMAQYIPSLEYYSEGKLPLVCTMYASSECYFGVNLKPLCDPADVAFTLLPNMCYFEFIHLGENGTWLVNKDEEGEVPNDKLVNLVNVRLGSYYELVVTTFAGLYRYRIGDVLRVTGFHNKAPQFQFICRRNVVLSIDNDKTNEEDLHKSITAAKKLLEPYDALLVEYTSYADTSSVPGHYVLYWEILHDASFPDSSAQLDVKLLQECCISVEEELDYVYRRCRAHDKSVGPLEIRVVESGTFEALMDFFIGQGASINQYKTPRSIKSNAALKLLNSHVKASAFSPRDPAWIP | 0.065 | 0.305 | 4.487 | 21.980 | – | –
OsGH3-11: GH3 protein, accession P0C0M3 (protein, listed as Oryza sativa) MDDHNLDYKGSGALEELEMLTVNAKEAQELILTKILERNQATEYLSKFMNGSTNISAFKRHVPVVTYDKVHPYILRIATGEESSILCGEYILELLRSSGTSRGEPRLMPSILKDLDRRTYLYSLIMPIMNKYISGLGEGKAMYLLFVKAETLTDSGIPVRSVLTSYYKSPHFLHRKHDLYNNYTSPDEVILCPDSQQSMYCQLLCGLVERQHVLRIGAVFASAFLRSISFLEQHWRDLVNDIRIGQLNSSITSPACRLAMLNFLALPNPELADQVEAICSCGSWKGILGRLWPNVKYIEAVLTGTMAQYIPMLEFYGGGAIPFVCTMYASSESYFGVNLSPLCSPADVSYTILPNMAYFEFIPLEDGLRLTDHEEVIENDKLVSLVDVKVGCYYELVVTTFSGLYRYRVGDVLQVTGFYNRAPQFKFICRRNVILSIDSDKTNEEDLHNSVTTAKKILENQNYLLLEYTSYTDISTVPGHYVLFWEIKSTHDERPAPLDAQLLESCCAAVEESLDYVYRRCRAHDRSIGPLEIRLVEAGAFDALMDLLVSHGSSINQYKTPRCIESSLALKLLNSKVIACFFSPQDPECGM | 0.000 | 0.043 | 0.000 | 0.000 | 2,4-D conjugases | IAA-inactive
VvGH3-8: GH3 protein, accession XP_002271002 (protein, listed as Vitis vinifera) MADGEILKKLEDSTKDAVAVQLQTLHTILQRNGRSSYLQRYGASLDTGSFREAVPLSCYDDYADYIDRMADGGGGDDDGDRPLLSVDPLVCFFNSSGTSSMKPKLIPYFDSPPSKAASHIAHQGSVAILRRLFPPRQSINKVLWFLYAGNVTYTKGGFKAMAASAFPLQSNNKNPSPFLSTSASPREVILGSNVEQQMYCHILCGLRNLDFLDGIRAPYAVGLIRAFALLEFKWEQICEDLKCGFPSMEITDIAMRDSVTEVLAGPQLDLSKRIRTICEGKNWGGIVGKLWPNVRYIKCVCTGSMEQYYQKLKYYAGEIPVLGGDYFASECCVGINLDILQPPQLTRFVLLPTAAYFEFLPFTLDEEEIGDDAQETVDFSGVEVGKMYEIVVTTYRGFFRYRLGDVVRVVGFHNTSPEVEFVMRAPKTPAEILTERDLMTAMGNFQLVLRTVKMPDVTEFASFFDLDSIPKQLKIFLEVAGVLQDEKLQELGSVLRRNFSSLEDGLGGVYKLRKGRGEVGPLLVSIVKPGSFNRLLQMATENGAPASQYKPPKIIRNLEIVHFMEGSALLTVSFDSSD | 0.000 | 0.028 | 0.000 | 0.000 | 2,4-D conjugases | IAA-inactive
AtGH3-13: GH3 protein, accession CAB86642 (protein, listed as Arabidopsis thaliana) MLPKFDLTDPKASLSLLEDVTTNVTQIQDSILEAVLSRNAHTEYLKGFLNGQVDKQTFKKNVPIVTYEDIKPYINRIANGEASDLICDRPISLLVMSSGTTAGIQNLIPLTTEDGEQRIMFGSLYRSLLYKYVEGIREGKSLTFYFVNPERETASGILIRTMITCILKSVNKTNSSLWDRLQISPHEISTCEDTTQSMYCQLLCGLLQRDNVARLGAPFASVFIRVIKYLEGHWQELCSNIRTGRLSDWITDPQCVSGISKFLTAPNPDLASLIEQECSKTSWEAIVKRLWPKAKCVEAVVTGSMAQYIPLLEFYGGGLPLISSWYGSSECFMGVNVNPLCKPSDVSYTIIPSMAYFEFLEVKKDQQEAGLDPIENHVVVDLVDVKIGHDYEPVVTTFSGLYRYRVGDLLRVTGFYNNSPHFRFVGRQKVVLSLHMANTYEEDLLKAVTNAKLLLEPHDLMLMEFTSRVDSSSFVGHYVLYWELGSKVKDAKLEPNRDVMEECCFTVEKYLDPLYRQERRKDKNIGPLEIKVVKPGAFDELMNFFLSRGSSVSQYKTPRSVKTEEAVKILEANVVSEFLSQETPPWG | 0.000 | 0.018 | 0.000 | 0.000 | 2,4-D conjugases | IAA-inactive
PtGH3-14: GH3 protein, accession EEE99364 (protein, listed as Populus trichocarpa) MTYDELDRNLEDLTKNAAHHQLQTLHSILQHQASVGYLQPYLSACHAPVDAATFRSQVPLSSYDDYFHLINQLANGDIDHHQPLLSADPLLCFFYSSGTSTMKPKLIPYFDSALSKAASYNAHQGSAAIFRNLVPPRPEVNKILWFLYADDAPTTRGGFKVMAASTYPLQGNKSRSNWSQTLSCISPREVVFGSNIKQQMYCHLLCALRSFDIIDGIRAAYAAGLIRAFSLLESKWEKLCDDLESGFPSLEIGDAAMKESVVEFLGGPQVDLSRRIREICAESNWGGILSKLWPNVRYVKSVTTGSMKQYYSKLKYYAGDVMILGGDYFASECCLGINLDIQQPPESTRFVMLPTTAYFEFLPFDLNESSVVGEETVDFSGVKVGKMYEVAVTTYRGLYRYRLGDIVRVVGFHNSSPLVEFVMRAPKTGYEIITEKDLMSAMESFQHSMAAEVVEFASFSDFELSPKRLKVFIEFREGCDFLQEEKLQGSVEALQRCCSSLENGLGEIYKVQKDRGEIGPLLVSVVRSGSFDGILQMAIKNGAPAGQYKPPKIIRNREIVDFMEESAVLTISLDSFHG | 0.000 | 0.015 | 0.000 | 0.000 | 2,4-D conjugases | IAA-inactive
OsGH3-7: GH3 protein, accession Q654M1 (protein, listed as Oryza sativa) MALLLPEFDPADVRAGRDLIHRLTADAAGIQRGVLREILSRNSGTEYLRRFLGGAAGDDDDVRDAFKRRVPVSGYEDVKPYVDRVASGGEPSSALLCSDPITCLSRSSGTSGGQQKLLPSTAEELDRKVFFYAVQALVRNMSLHTDHGEDDDGGGGEGMYLMFAFHGDRTLSGLPIQSALTTYYHSRQFQECDIGGFDKCTSPLEAILCPYGEQSMYCQLLCGLLHRCRVDRVGASFAAGLVRGIKFLENHWEEMCFNIRSGQLSDWITHTPLRDAVTGQYLQGSNPALADEIASECARKPWDGIVRRLWPRARYIRTIVTGSMSQYIPILEVYGGGLPLVSPIYASTECAAGINLRPLDPPSHVSYALLPNIAYFEFLEVMDENGEKVQGTTRLDDNLGEVKVVDLVDVKVGRCYELIVTTFAGLYRYRVGDLFTVSGFYNATPLFHFSGRHDVILSIDYEKISEEDLLNAIAETDKFHLRPLGYMLVGSTAYADISTLPGHYILFWELTNTCDSNVAIDIDQTAMEKCCLAVEDHFDEMYRKIRHRGSISALEIRILSHGAFDALMDFFVSRGTSASQYKTPTAIRSKEAMMVLEERVVGRFFSQATPSCRSAEFERR | 0.000 | 0.028 | 0.000 | 0.000 | 2,4-D conjugases | IAA-inactive
AtGH3-14: GH3 protein, accession CAB87143 (protein, listed as Arabidopsis thaliana) MLPKFDPTDQKACLSLLEDVTTNVKQIQDSVLEAILSRNAHTEYLSGFLNGQADKKSFKKNVPVVTYEDIKPYIDRIANGEPSDLICDRPISVLLTSSGTSGGVPKLIPLTTEELEQRISFASLYRPLLYKYIEGIRERKSFMLYFVTRESETASGILVRTMITCVLKSVTPANSFIWDQSQISPHAITTCSDTTQSMYCQLLCGLLQRDNVGRLGAPFASSFLKIIKFLEDHWPEFCSNIRTGCLSDWITDPQCVSGIGKFLTAPNPELASLIEQECSQTSWEAIVKRLWPKAKCIEAIVTGTMAQYNPLLEFYSGGLPVISTFYGSSECFFGLNLNPLSKPNEVSYTIIPCMAYFEFLEVEKDYESGHDPAENPVVVDLVDVKIGHDYEPVVTTFAGLYRYRLGDVLRVTGFYNNAPQFHFVGRQKVVLSIDMDKTYDEDLLKAVTNASLLLEPHDLMLMDFTSRVDSSSYPGHYVLYWELGRKVKDAKLELDQNVLEECCFTIEESLDAVYRKGRKNDKNIGPLEIKVVKPGAFDKLMNFFLSRGSSVSQYKTPRSVTNEEALKILEANVVSEFLSQKTPSWELHELHSSR | 0.122 | 0.233 | 0.000 | 0.000 | 2,4-D conjugases | IAA-inactive
